Measured values as given in US20220088134A1 (REGENTS OF THE UNIVERSITY OF MINNESOTA, published 2022).

Target: human CD200 activation receptors (CD200AR) (human)
Assay: cell-based or functional assay

B1: human CD200AR-L peptide P4A10 (peptide)
peptide: Ac-CLFNTFGFGAISGTA-NH2
- T-cell secretion of IFNγ after treatment of iDCs with P4A10: 5.4 fold
- T-cell secretion of IL6 after treatment of iDCs with P4A10: 5.6 fold
- T-cell secretion of RANTES after treatment of iDCs with P4A10: 16.3 fold
- T-cell secretion of TNFα after treatment of iDCs with P4A10: 16.6 fold
